The test addresses CH67 Fab, critical dipeptide VD changed to MD (human). Nature of the test: BLI. On the technique in general: In BLI a coated tip is dipped into the sample, and binding shifts an interference pattern.

The Kd is a measure of binding affinity in units of concentration. A low value points to higher affinity. Usually koff stands for a measure of how fast the partners let go of each other. High values mean fast dissociation, low ones slow dissociation. The term kon denotes the second-order rate constant of association. Read a high kon as fast association.

In the case of “HA A/Solomon Islands/03/2006 globular head (from UniProt A7Y8I1) (domain or fragment)”, the Kd was 8.5 µM, the koff was determined as 0.00478 s⁻¹ and the kon was 56200 M⁻¹ s⁻¹.
